Results on two molecules are retold here after US20060030527A1 (TRANSTECH PHARMA, published 2006).

For assay [1], the target named is T1, BSA (UniProt P02769 25-607).
T1 construct: also called BSA coating alone; BSA+wash
The assay can be described thus: ELISA on coated Maxisorb plates, absorbance at 405 nm. As for the experimental part:
(§1) Known RAGE ligands were coated onto the surface of Maxisorb plates at a concentration of 5 micrograms per well. Plates were incubated at 4° C. overnight. Following ligand incubation, plates were aspirated and a blocking buffer of 1% BSA in 50 mM imidizole buffer (pH 7.2) was added to the plates for 1 hour at room temperature. The plates were then aspirated and/or washed with wash buffer (20 mM Imidizole, 150 mM NaCl, 0.05% Tween-20, 5 mM CaCl₂ and 5 mM MgCl₂, pH 7.2). […] The fusion protein was added at increasing dilutions of the initial sample. The RAGE fusion protein was allowed to incubate with the immobilized ligand at 37° C. for one hour after which the plate was washed and assayed for binding of the fusion protein. Binding was detected by the addition of an immunodetection complex containing a monoclonal mouse anti-human IgG1 diluted 1:11,000 to a final assay concentration (FAC) of 21 ng/100 μL, a biotinylated goat anti-mouse IgG diluted 1:500, to a FAC of […], and an avidin-linked alkaline phosphatase. […] Binding of the complex to the immobilized fusion protein was quantified by measuring conversion of PNPP to para-nitrophenol (PNP) which was measured spectrophotometrically at 405 nm.

The target in assay [2] is T2, Amyloid Beta (1-40) from Biosource (UniProt P05067 672-711).
T2 construct: domain: Amyloid Beta (1-40); Immobilised on Maxisorb plates; amyloid beta 1-40 is a fragment of it; also called Abeta; A-beta
T2 sequence (P05067 672-711 limits assumed): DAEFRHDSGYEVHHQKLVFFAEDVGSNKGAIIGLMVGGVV
The assay can be described thus: ELISA, ligand coated on Maxisorb plate, fusion protein detected through anti-human IgG1 complex. The protocol:
as §1
On the technique in general: An ELISA detects its analyte on a solid surface through an enzyme-linked reagent.

Assay [3] deals with T2, Amyloid Beta (1-40) from Biosource. The assay can be described thus: ELISA, immobilised ligand, dilutions of a 1.082 mg/mL solution. As for the experimental part: as §1

T1 sequence (P02769 25-607 limits assumed): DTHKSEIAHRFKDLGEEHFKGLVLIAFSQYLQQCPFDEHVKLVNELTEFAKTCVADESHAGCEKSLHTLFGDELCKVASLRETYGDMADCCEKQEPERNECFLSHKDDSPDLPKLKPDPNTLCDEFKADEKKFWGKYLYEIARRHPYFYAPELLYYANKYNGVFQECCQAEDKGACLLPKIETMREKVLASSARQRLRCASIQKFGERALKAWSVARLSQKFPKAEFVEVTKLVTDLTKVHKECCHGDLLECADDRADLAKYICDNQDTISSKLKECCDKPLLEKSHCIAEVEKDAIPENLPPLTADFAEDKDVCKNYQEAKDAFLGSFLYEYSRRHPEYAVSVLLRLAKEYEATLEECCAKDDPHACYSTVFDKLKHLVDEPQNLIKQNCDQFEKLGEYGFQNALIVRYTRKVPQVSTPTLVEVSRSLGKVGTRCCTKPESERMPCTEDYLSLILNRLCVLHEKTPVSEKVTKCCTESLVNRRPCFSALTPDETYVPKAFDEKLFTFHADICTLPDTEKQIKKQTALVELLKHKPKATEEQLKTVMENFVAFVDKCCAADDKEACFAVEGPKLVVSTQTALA

B1: RAGE fusion protein TTP-4000 (Fc fusion)
chain: AQNITARIGEPLVLKCKGAPKKPPQRLEWKLNTGRTEAWKVLSPQGGGPWDSVARVLPNGSLFLPAVGIQDEGIFRCQAMNRNGKETKSNYRVRVYQIPGKPEIVDSASELTAGVPNKVGTCVSEGSYPAGTLSWHLDGKPLVPNEKGVSVKEQTRRHPETGLFTLQSELMVTPARGGDPRPTFSCSFSPGLPRHRALRTAPIQPRVWEPVPLEEVQLVVEPEGGAVAPPSVFLFPPKPKDTLMISRTPEVTCVVVDVSHEDPEVKFNWYVDGVEVHNAKTKPREEQYNSTYRVVSVLTVLHQDWLNGKEYKCKVSNKALPAPIEKTISKAKGQPREPQVYTLPPSRDELTKNQVSLTCLVKGFYPSDIAVEWESNGQPENNYKTTPPVLDSDGSFFLYSKLTVDKSRWQQGNVFSCSVMHEALHNHYTQKSLSLSPGK
notes: No immunoglobulin hinge; also called TT4; four domain RAGE fusion protein
For B1, the figures for the binding result in assay [1] and in assay [2] were “no binding” and “binds”, respectively.

B2: RAGE fusion protein TTP-3000 (Fc fusion)
chain: AQNITARIGEPLVLKCKGAPKKPPQRLEWKLNTGRTEAWKVLSPQGGGPWDSVARVLPNGSLFLPAVGIQDEGIFRCQAMNRNGKETKSNYRVRVYQIPGKPEIVDSASELTAGPSVFLFPPKPKDTLMISRTPEVTCVVVDVSHEDPEVKFNWYVDGVEVHNAKTKPREEQYNSTYRVVSVLTVLHQDWLNGKEYKCKVSNKALPAPIEKTISKAKGQPREPQVYTLPPSRDELTKNQVSLTCLVKGFYPSDIAVEWESNGQPENNYKTTPPVLDSDGSFFLYSKLTVDKSRWQQGNVFSCSVMHEALHNHYTQKSLSLSPGK
notes: also called TT3; three domain RAGE fusion protein
Take B2: the binding result in assay [1] is on record as “no binding”; in assay [3] it was “binds”.
